# From US11203773B2, “Designer ribosomes and methods of use thereof for incorporating non-standard amino acids into polypeptides” (Yale University, priority 2016, dated 2021)
# How the values were obtained:
# [1] = substrate: CSCC[C@H](N)C(=O)O; experiment: purified protein, by the assay type; conditions: MetRS
# [2] = substrate: N[C@@H](Cc1ccc(O)cc1)C(=O)O; experiment: Adenylation of α- and β-Tyr, coupled MESG/PNP pyrophosphate release assay; format: biochemical, E. coli; conditions: other: adenylation, TyrRS
# Source text: ii. Adenylation of α- and β-Tyr catalyzed by E. coli TyrRS. These reactions were monitored spectrophotometrically in a coupled assay using inorganic pyrophosphatase, 2-amino-6-mercapto-7-methylpurine ribonucleoside (MESG), and purine nucleoside phosphorylase (PNP) to monitor the rate of pyrophosphate release, according to the manufacturer's instructions (Enzcheck Pyrophosphate assay kit, Thermo Fisher Scientific). The assay measures the increase in absorbance at 360 nm due to MESG phosphorolysis, and two molecules of MESG are consumed per pyrophosphate generated. This direct assay could be employed for TyrRS because the rate of ATP hydrolysis (in the absence of amino acid substrate) was insignificant, which was not the case for the other synthetases which therefore required the more laborious pyrophosphate exchange assay described above. […] For TyrRS, kcat is the turnover number (units of reciprocal time) since the change in absorbance can be directly correlated to concentration of pyrophosphate formed.
# [3] = substrate: N[C@@H](Cc1ccc(O)cc1)C(=O)O; experiment: Aminoacylation of 32P-tRNA with α- and β3-amino acids; format: biochemical, E. coli; conditions: other: aminoacylation, TyrRS
# [4] = substrate: N[C@@H](Cc1ccccc1)C(=O)O; experiment: as above; format: biochemical, E. coli; conditions: other: aminoacylation, PheRS
# [5] = substrate: N[C@@H](Cc1ccccc1)C(=O)O; experiment: purified protein, by the assay type; conditions: other: adenylation, PheRS; pH 7.0; 25.0 °C
# Description: Adenylation of α- and β-Amino Acids Catalyzed by E. coli PheRS, GlyRS, MetRS, and GluRS. […] Briefly, assay mixtures (50 μL) assembled at 25° C. contained the requisite α- or β^3-amino acid substrate (between 5 μM and 5 mM) in 100 mM HEPES (pH 7.0) containing 100 mM KCl, 15 mM MgCl2, 2 mM ATP, 0.5 mM NaPPi, and 50 μCi [^32P]-NaPPi). Reactions were initiated upon addition of enzyme (10 nM MetRS, 10 nM PheRS, or 50 nM GlyRS; 100 nM GluRS for reactions with α-Glu or 1.13 μM GluRS for reactions with β^3-Glu), incubated for various times (10 sec to 10 min), and halted by adding a 5 μL reaction aliquot to 100 μL quenching solution (10% charcoal, 0.5% HCl). 50 μL of 200 mM NaPPi in 1.5 N HCl was then added to each quenched reaction to decrease nonspecific binding of pyrophosphate to the charcoal. Each quenched reaction was then filtered through Whatman filter paper (number 3), previously washed with washing solution (200 mM NaPPi in 1 N HCl) using a 96-well BIO-DOT® apparatus (BioRad). Each well of the apparatus was then washed four times with 200 μL aliquots of washing solution (by pipetting washing solution up and down at least 10 times per wash) to minimize nonspecific binding of pyrophosphate to charcoal. Each experimental well was paired with an analogous control well (no-enzyme control) that lacked enzyme; a single membrane contained time points for both α- and β^3-amino acid substrates and all no-enzyme controls. The membrane was allowed to dry and was protected with a sheet of Microseal B adhesive seals (Biorad) prior to exposure to a BAS Storage Phosphor screen. Screens were imaged on a Typhoon 9500FLA biomolecule imager and the signal intensity of each dot was quantified using ImageJ to determine the relative amount of [^32P]-ATP formed as a function of time (Ctime). Each raw value were corrected by subtracting the intensity of the dot corresponding to the appropriate no-enzyme control (Cblank) and the resulting corrected values of Ccorr (representing the relative amounts of ^32P-ATP formed) were plotted as a function of time to determine values of relative ^32P-ATP formed per minute. Those values were divided by the concentration of enzyme used, and the data was plotted as relative specific activity (^32P-ATP formed min^−1×μM^−1 enzyme) and fitted using Prism by performing nonlinear regression using the least squares method and Equation 1 to obtain RSA (relative specific activity) and KM values (Equation 1 and Table 2).
# In Equation 1, v is the apparent relative specific activity (relative ^32P-ATP formed per minute) obtained at each substrate concentration divided by the enzyme concentration, RSA is the relative specific activity, S is the concentration of substrate, and KM is the Michaelis-Menten constant.
protein,measurement,setting,value
E. coli MetRS (Escherichia coli K-12) (protein) MTQVAKKILVTCALPYANGSIHLGHMLEHIQADVWVRYQRMRGHEVNFICADDAHGTPIMLKAQQLGITPEQMIGEMSQEHQTDFAGFNISYDNYHSTHSEENRQLSELIYSRLKENGFIKNRTISQLYDPEKGMFLPDRFVKGTCPKCKSPDQYGDNCEVCGATYSPTELIEPKSVVSGATPVMRDSEHFFFDLPSFSEMLQAWTRSGALQEQVANKMQEWFESGLQQWDISRDAPYFGFEIPNAPGKYFYVWLDAPIGYMGSFKNLCDKRGDSVSFDEYWKKDSTAELYHFIGKDIVYFHSLFWPAMLEGSNFRKPSNLFVHGYVTVNGAKMSKSRGTFIKASTWLNHFDADSLRYYYTAKLSSRIDDIDLNLEDFVQRVNADIVNKVVNLASRNAGFINKRFDGVLASELADPQLYKTFTDAAEVIGEAWESREFGKAVREIMALADLANRYVDEQAPWVVAKQEGRDADLQAICSMGINLFRVLMTYLKPVLPKLTERAEAFLNTELTWDGIQQPLLGHKVNPFKALYNRIDMRQVEALVEASKEEVKAAAAPVTGPLADDPIQETITFDDFAKVDLRVALIENAEFVEGSDKLLRLTLDLGGEKRNVFSGIRSAYPDPQALIGRHTIMVANLAPRKMRFGISEGMVMAAGPGGKDIFLLSPDAGAKPGHQVK,Km,"[1]; other: adenylation, pH 7.0, 25.0 °C",23.4 ± 8.0 µM
same,Km,[1]; other: aminoacylation,243.4 ± 55.7 µM
same,kcat,[1]; other: aminoacylation,0.0233 s⁻¹
same,kcat/Km,[1]; other: aminoacylation,100 M⁻¹ s⁻¹
"E. coli TyrRS (Escherichia coli K-12) (protein, made in house; host or cells: E. coli BL21(DE3)) MASSNLIKQLQERGLVAQVTDEEALAERLAQGPIALYCGFDPTADSLHLGHLVPLLCLKRFQQAGHKPVALVGGATGLIGDPSFKAAERKLNTEETVQEWVDKIRKQVAPFLDFDCGENSAIAANNYDWFGNMNVLTFLRDIGKHFSVNQMINKEAVKQRLNREDQGISFTEFSYNLLQGYDFACLNKQYGVVLQIGGSDQWGNITSGIDLTRRLHQNQVFGLTVPLITKADGTKFGKTEGGAVWLDPKKTSPYKFYQFWINTADADVYRFLKFFTFMSIEEINALEEEDKNSGKAPRAQYVLAEQVTRLVHGEEGLQAAKRITECLFSGSLSALSEADFEQLAQDGVPMVEMEKGADLMQALVDSELQPSRGQARKTIASNAITINGEKQSDPEYFFKEEDRLFGRFTLLRRGKKNYCLICWK",Km,[2],21.4 ± 6.9 µM
same,kcat,[2],0.0203 ± 0.00183 s⁻¹
same,kcat/Km,[2],1000 ± 333 M⁻¹ s⁻¹
same,Km,[3],12.4 ± 4.8 µM
same,kcat,[3],1.18 ± 0.128 s⁻¹
same,kcat/Km,[3],95000 ± 38300 M⁻¹ s⁻¹
"E. coli PheRS (Escherichia coli K-12) (protein, made in house; host or cells: E. coli BL21(DE3)) MSHLAELVASAKAAISQASDVAALDNVRVEYLGKKGHLTLQMTTLRELPPEERPAAGAVINEAKEQVQQALNARKAELESAALNARLAAETIDVSLPGRRIENGGLHPVTRTIDRIESFFGELGFTVATGPEIEDDYHNFDALNIPGHHPARADHDTFWFDTTRLLRTQTSGVQIRTMKAQQPPIRIIAPGRVYRNDYDQTHTPMFHQMEGLIVDTNISFTNLKGTLHDFLRNFFEEDLQIRFRPSYFPFTEPSAEVDVMGKNGKWLEVLGCGMVHPNVLRNVGIDPEVYSGFAFGMGMERLTMLRYGVTDLRSFFENDLRFLKQFK",Km,[4],200.4 ± 78.8 µM
same,Km,[5],52.8 ± 25.8 µM
